B1: UN2A, unique insertion sequence of the N2A region of titin (mouse, amino acids 8539-8655) (domain or fragment)
chain: DERKKQEKIEGDLRAMLKKTPALKKGSGEEEEIDIMELLKNVDPKEYEKYARMYGITDFRGLLQAFELLKQSQEEETHRLEIEELEKSERDEKEFEELVAFIQQRLTQTEPVTLIKD
notes: titin, mouse, UN2A region between Ig domains I80 and I81, amino acids 8539-8655; Gene synthesised by GeneArt; No tag is named; source: E. coli BL21(DE3) pLysS, purified (Capto-Q anion exchange, SEC)
B2: S100A1 (mouse) (natural protein)
chain: MGSELESAMETLINVFHAHSGQEGDKYKLSKKELKDLLQTELSGFLDVQKDADAVDKVMKELDENGDGEVDFKEYVVLVAALTVACNNFFWETS
notes: S100A1, mouse; No tag is named; source: E. coli BL21(DE3), purified (Capto-Q anion exchange, phenyl Sepharose)

Assays:
Settings in all cases: both partners purified
S100A1 (mouse) = target: B2; assay: co-IP; purified proteins, 500 µg each, with anti-S100A1 antibody overnight at 4°C, captured on magnetic beads; 250 mM NaCl, 20 mM HEPES, 1 mM Ca^2+, pH 6; SDS-PAGE, silver staining, densitometry
[1] = target: B1; assay: SPR; UN2A immobilised on carboxyl sensor (OpenSPR), S100A1 injected at 5 to 100 µM; 25°C; 250 mM NaCl, 20 mM HEPES, 0.05% Tween; pCa 5, pH 6.0; 1:1 model
[2] = target: B1; assay: SPR; UN2A immobilised on carboxyl sensor (OpenSPR), S100A1 injected; 25°C; pCa 3, pH 6.5; 1:1 model
[3] = target: B1; assay: SPR; UN2A immobilised on carboxyl sensor (OpenSPR), S100A1 injected at 5 to 100 µM; 25°C; 250 mM NaCl, 20 mM HEPES, 0.05% Tween; pCa 5, pH 7.4; 1:1 model
[4] = target: B1; assay: SPR; UN2A immobilised on carboxyl sensor (OpenSPR), S100A1 injected at 5 to 100 µM; 25°C; 250 mM NaCl, 20 mM HEPES, 0.05% Tween; pCa 3, pH 6.0; 1:1 model
[5] = target: B1; assay: SPR; UN2A immobilised on carboxyl sensor (OpenSPR), S100A1 injected at 5 to 100 µM; 25°C; 250 mM NaCl, 20 mM HEPES, 0.05% Tween; pCa 3, pH 7.4; 1:1 model

Binder | band intensity of UN2A relative to the S100A1 band (densitometry) (S100A1 (mouse)) [%] | binding ratio of UN2A to S100A1 in the complex (densitometry) (S100A1 (mouse)) [UN2A per S100A1] | Kd [1] [µM] | Kd [2] [µM] | Kd [3] [µM] | Kd [4] [µM] | Kd [5] [µM]
B1 | 25 | ~0.25 | – | – | – | – | –
B2 | – | – | 174 | 9.95 | 285 | 5 | 21.6
